Test results taken from PMC9352680, “A comprehensive thermodynamic model for RNA binding by the Saccharomyces cerevisiae Pumilio protein PUF4”.

T1: PUF4 RNA-binding domain (Saccharomyces cerevisiae, UniProt P25339 537-888)
T1 sequence: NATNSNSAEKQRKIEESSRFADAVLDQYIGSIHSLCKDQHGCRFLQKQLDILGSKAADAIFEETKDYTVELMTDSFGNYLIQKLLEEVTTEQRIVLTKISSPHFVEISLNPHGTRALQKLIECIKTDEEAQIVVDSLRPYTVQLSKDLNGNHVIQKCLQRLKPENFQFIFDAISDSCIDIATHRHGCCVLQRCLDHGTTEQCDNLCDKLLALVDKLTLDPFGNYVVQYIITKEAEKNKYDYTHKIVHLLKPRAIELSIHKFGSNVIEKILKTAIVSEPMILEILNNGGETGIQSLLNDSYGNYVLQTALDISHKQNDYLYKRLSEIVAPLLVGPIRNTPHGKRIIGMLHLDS


molecular target: T1, PUF4 RNA-binding domain; assay: Mg; RNA-MaP; 20 mM Na-HEPES pH 7.4, 30 mM KOAc, 0.75 mM MgCl2, 0.1% Tween-20, 5% glycerol, 0.1 mg/mL BSA, 2 mM DTT; 25 C; 0.0125-409.6 nM protein; conditions: tags: N-His6-TEV cleaved; C-SNAP kept, Cy3B-labelled; label: tethered on chip by stalled RNA polymerase

Row | Binder | Kd [nM]
1 | UCUCUUUGUAUUAUUAUUCUCUCUU (ssRNA) [Ie_S1_P5E.1_K5.1_C5.1_H5.1_A5.1_F5.1_[+10TTC]_T5.1] | 5.81
2 | Ie_S2_P3E.2_K3.1_C3.2_H3.1_[+1T]_A3.1_F3.1_T3.2 (ssRNA) RNA: UUUGAUUAAUAUGAUAUCGUUCUUUCUCUUUGUAUAUAUAUUCUUUCUCGAUAUCAUAUUAAUCUUU | 1.11
3 | Ie_S2_P3E.2_K3.1_C3.2_H3.1_[+1C]_A3.1_F3.1_T3.2 (ssRNA) RNA: UUUGAUUAAUAUGAUAUCGUUCUUUCUCUUCGUAUAUAUAUUCUUUCUCGAUAUCAUAUUAAUCUUU | 34.5
4 | UCUCUUUGUAUUAUUAUUCCUCUCUU (ssRNA) [Ie_S1_P5E.1_K5.1_C5.1_H5.1_A5.1_F5.1_[+10TTCC]_T5.1] | 4.65
5 | UCUCUUUGUAUUAUUAUCCUCUCUU (ssRNA) [Ie_S1_P5E.1_K5.1_C5.1_H5.1_A5.1_F5.1_[+10TCC]_T5.1] | 6.07
6 | Ia_S2_P3E.1_K3.1_C3.1_H3.1_[G2C]_A3.1_F3.1_T3.1 (ssRNA) RNA: UUUGAUUAAUAUGAUAUCGUUCUUUCUUCUAUAUAUUCUUUCUCGAUAUCAUAUUAAUCUUU | 473
7 | Ib_S2_P3E.1_K3.1_C3.1_H3.1_A3.1_[A6G]_F3.1_[T7C]_T3.1 (ssRNA) RNA: UUUGAUUAAUAUGAUAUCGUUCUUUCUUGUAUGCAUUCUUUCUCGAUAUCAUAUUAAUCUUU | 198
8 | Ic_S2_P3E.1_K3.1_C3.1_H3.1_A3.1_[T5A]_F3.1_[T7C]_T3.1 (ssRNA) RNA: UUUGAUUAAUAUGAUAUCGUUCUUUCUUGUAAACAUUCUUUCUCGAUAUCAUAUUAAUCUUU | 327
9 | Ib_S2_P3E.1_K3.1_C3.1_H3.1_A3.1_[T5C]_F3.1_[T7C]_T3.1 (ssRNA) RNA: UUUGAUUAAUAUGAUAUCGUUCUUUCUUGUACACAUUCUUUCUCGAUAUCAUAUUAAUCUUU | 22.4
10 | Ib_S2_P3E.1_K3.1_C3.1_H3.1_A3.1_[T5C]_F3.1_[T7A]_T3.1 (ssRNA) RNA: UUUGAUUAAUAUGAUAUCGUUCUUUCUUGUACAAAUUCUUUCUCGAUAUCAUAUUAAUCUUU | 58.4
11 | UCUCUUUGUAUUAUUAUCUCUCUU (ssRNA) [Ie_S1_P5E.1_K5.1_C5.1_H5.1_A5.1_F5.1_[+10TC]_T5.1] | 4.34
12 | Ie_S2_P3E.2_K3.1_C3.2_[+-2CTCT]_H3.1_A3.1_F3.1_T3.2 (ssRNA) RNA: UUUGAUUAAUAUGAUAUCGUUCUUUCUCCUCUUUGUAUAUAUAUUCUUUCUCGAUAUCAUAUUAAUCUUU | 1.08
13 | Ie_S2_P3E.2_K3.1_C3.2_[+-1CCTC]_H3.1_A3.1_F3.1_T3.2 (ssRNA) RNA: UUUGAUUAAUAUGAUAUCGUUCUUUCUCUCCUCUGUAUAUAUAUUCUUUCUCGAUAUCAUAUUAAUCUUU | 0.786
14 | Ie_S2_P3E.2_K3.1_C3.2_[+-2CCTC]_H3.1_A3.1_F3.1_T3.2 (ssRNA) RNA: UUUGAUUAAUAUGAUAUCGUUCUUUCUCCCUCUUGUAUAUAUAUUCUUUCUCGAUAUCAUAUUAAUCUUU | 0.683
15 | Ie_S2_P3E.2_K3.1_C3.2_[+-1CTCT]_H3.1_A3.1_F3.1_T3.2 (ssRNA) RNA: UUUGAUUAAUAUGAUAUCGUUCUUUCUCUCUCUUGUAUAUAUAUUCUUUCUCGAUAUCAUAUUAAUCUUU | 0.703
16 | Ie_S2_P3E.2_K3.1_C3.2_[+-2TTCC]_H3.1_A3.1_F3.1_T3.2 (ssRNA) RNA: UUUGAUUAAUAUGAUAUCGUUCUUUCUCUUCCUUGUAUAUAUAUUCUUUCUCGAUAUCAUAUUAAUCUUU | 0.819
17 | Ie_S2_P3E.2_K3.1_C3.2_H3.1_[+1CTCT]_A3.1_F3.1_T3.2 (ssRNA) RNA: UUUGAUUAAUAUGAUAUCGUUCUUUCUCUUCUCUGUAUAUAUAUUCUUUCUCGAUAUCAUAUUAAUCUUU | 0.882
18 | Ie_S2_P3E.2_K3.1_C3.2_[+-1TTCC]_H3.1_A3.1_F3.1_T3.2 (ssRNA) RNA: UUUGAUUAAUAUGAUAUCGUUCUUUCUCUUUCCUGUAUAUAUAUUCUUUCUCGAUAUCAUAUUAAUCUUU | 1.28
19 | Ie_S2_P3E.2_K3.1_C3.2_[+-2CCCT]_H3.1_A3.1_F3.1_T3.2 (ssRNA) RNA: UUUGAUUAAUAUGAUAUCGUUCUUUCUCCCCUUUGUAUAUAUAUUCUUUCUCGAUAUCAUAUUAAUCUUU | 0.468
20 | Ie_S2_P3E.2_K3.1_C3.2_[+-2CC]_H3.1_A3.1_F3.1_T3.2 (ssRNA) RNA: UUUGAUUAAUAUGAUAUCGUUCUUUCUCCCUUGUAUAUAUAUUCUUUCUCGAUAUCAUAUUAAUCUUU | 1.07
21 | Ie_S2_P3E.2_K3.1_C3.2_[+-1CC]_H3.1_A3.1_F3.1_T3.2 (ssRNA) RNA: UUUGAUUAAUAUGAUAUCGUUCUUUCUCUCCUGUAUAUAUAUUCUUUCUCGAUAUCAUAUUAAUCUUU | 0.923
22 | Ie_S2_P3E.2_K3.1_C3.2_H3.1_[+1TT]_A3.1_F3.1_T3.2 (ssRNA) RNA: UUUGAUUAAUAUGAUAUCGUUCUUUCUCUUUUGUAUAUAUAUUCUUUCUCGAUAUCAUAUUAAUCUUU | 1.22
23 | Ie_S2_P3E.2_K3.1_C3.2_H3.1_[+1TC]_A3.1_F3.1_T3.2 (ssRNA) RNA: UUUGAUUAAUAUGAUAUCGUUCUUUCUCUUUCGUAUAUAUAUUCUUUCUCGAUAUCAUAUUAAUCUUU | 39

Row | Binder | Kd [nM]
24 | UCUCUUUGUAUUAUUUUCCUAUCUCUU (ssRNA) [Ie_S1_P5E.1_K5.1_C5.1_H5.1_A5.1_F5.1_[+9TTCCT]_T5.1] | 22.3
25 | Ie_S2_P3E.2_K3.1_C3.2_[+-2TCTCT]_H3.1_A3.1_F3.1_T3.2 (ssRNA) RNA: UUUGAUUAAUAUGAUAUCGUUCUUUCUCUCUCUUUGUAUAUAUAUUCUUUCUCGAUAUCAUAUUAAUCUUU | 1.24
26 | Ie_S2_P3E.2_K3.1_C3.2_[+-1CCTCT]_H3.1_A3.1_F3.1_T3.2 (ssRNA) RNA: UUUGAUUAAUAUGAUAUCGUUCUUUCUCUCCUCUUGUAUAUAUAUUCUUUCUCGAUAUCAUAUUAAUCUUU | 0.967
27 | Ie_S2_P3E.2_K3.1_C3.2_[+-1TCTCT]_H3.1_A3.1_F3.1_T3.2 (ssRNA) RNA: UUUGAUUAAUAUGAUAUCGUUCUUUCUCUUCUCUUGUAUAUAUAUUCUUUCUCGAUAUCAUAUUAAUCUUU | 1.04
28 | Ie_S2_P3E.2_K3.1_C3.2_[+-1CCCTT]_H3.1_A3.1_F3.1_T3.2 (ssRNA) RNA: UUUGAUUAAUAUGAUAUCGUUCUUUCUCUCCCUUUGUAUAUAUAUUCUUUCUCGAUAUCAUAUUAAUCUUU | 0.572
29 | Ie_S2_P3E.2_K3.1_C3.2_[+-1TTCCT]_H3.1_A3.1_F3.1_T3.2 (ssRNA) RNA: UUUGAUUAAUAUGAUAUCGUUCUUUCUCUUUCCUUGUAUAUAUAUUCUUUCUCGAUAUCAUAUUAAUCUUU | 0.987
30 | Ie_S2_P3E.2_K3.1_C3.2_[+-2CCTCT]_H3.1_A3.1_F3.1_T3.2 (ssRNA) RNA: UUUGAUUAAUAUGAUAUCGUUCUUUCUCCCUCUUUGUAUAUAUAUUCUUUCUCGAUAUCAUAUUAAUCUUU | 1.06
31 | Ie_S2_P3E.2_K3.1_C3.2_[+-2CCCTT]_H3.1_A3.1_F3.1_T3.2 (ssRNA) RNA: UUUGAUUAAUAUGAUAUCGUUCUUUCUCCCCUUUUGUAUAUAUAUUCUUUCUCGAUAUCAUAUUAAUCUUU | 0.802
32 | Ie_S2_P3E.2_K3.1_C3.2_[+-2CCC]_H3.1_A3.1_F3.1_T3.2 (ssRNA) RNA: UUUGAUUAAUAUGAUAUCGUUCUUUCUCCCCUUGUAUAUAUAUUCUUUCUCGAUAUCAUAUUAAUCUUU | 0.969
33 | Ie_S2_P3E.2_K3.1_C3.2_[+-2CTC]_H3.1_A3.1_F3.1_T3.2 (ssRNA) RNA: UUUGAUUAAUAUGAUAUCGUUCUUUCUCCUCUUGUAUAUAUAUUCUUUCUCGAUAUCAUAUUAAUCUUU | 0.846
34 | Ie_S2_P3E.2_K3.1_C3.2_H3.1_[+1TTT]_A3.1_F3.1_T3.2 (ssRNA) RNA: UUUGAUUAAUAUGAUAUCGUUCUUUCUCUUUUUGUAUAUAUAUUCUUUCUCGAUAUCAUAUUAAUCUUU | 1.33
35 | Ie_S2_P3E.2_K3.1_C3.2_H3.1_[+1TCC]_A3.1_F3.1_T3.2 (ssRNA) RNA: UUUGAUUAAUAUGAUAUCGUUCUUUCUCUUUCCGUAUAUAUAUUCUUUCUCGAUAUCAUAUUAAUCUUU | 44.3
36 | Ie_S2_P3E.2_K3.1_C3.2_[+-1CCC]_H3.1_A3.1_F3.1_T3.2 (ssRNA) RNA: UUUGAUUAAUAUGAUAUCGUUCUUUCUCUCCCUGUAUAUAUAUUCUUUCUCGAUAUCAUAUUAAUCUUU | 0.662
37 | Ie_S2_P3E.2_K3.1_C3.2_[+-2CCT]_H3.1_A3.1_F3.1_T3.2 (ssRNA) RNA: UUUGAUUAAUAUGAUAUCGUUCUUUCUCCCUUUGUAUAUAUAUUCUUUCUCGAUAUCAUAUUAAUCUUU | 1.07
38 | Ie_S2_P3E.2_K3.1_C3.2_H3.1_[+1TCT]_A3.1_F3.1_T3.2 (ssRNA) RNA: UUUGAUUAAUAUGAUAUCGUUCUUUCUCUUUCUGUAUAUAUAUUCUUUCUCGAUAUCAUAUUAAUCUUU | 1.12
39 | Ie_S2_P3E.2_K3.1_C3.2_H3.1_[+1CCC]_A3.1_F3.1_T3.2 (ssRNA) RNA: UUUGAUUAAUAUGAUAUCGUUCUUUCUCUUCCCGUAUAUAUAUUCUUUCUCGAUAUCAUAUUAAUCUUU | 31.2
40 | Ie_S2_P3E.2_K3.1_C3.2_[+-2TCT]_H3.1_A3.1_F3.1_T3.2 (ssRNA) RNA: UUUGAUUAAUAUGAUAUCGUUCUUUCUCUCUUUGUAUAUAUAUUCUUUCUCGAUAUCAUAUUAAUCUUU | 1.02
41 | Ie_S2_P3E.2_K3.1_C3.2_[+-2TCC]_H3.1_A3.1_F3.1_T3.2 (ssRNA) RNA: UUUGAUUAAUAUGAUAUCGUUCUUUCUCUCCUUGUAUAUAUAUUCUUUCUCGAUAUCAUAUUAAUCUUU | 0.933
42 | Ie_S2_P3E.2_K3.1_C3.2_H3.1_[+1CCT]_A3.1_F3.1_T3.2 (ssRNA) RNA: UUUGAUUAAUAUGAUAUCGUUCUUUCUCUUCCUGUAUAUAUAUUCUUUCUCGAUAUCAUAUUAAUCUUU | 1.05
43 | Ie_S2_P3E.2_K3.1_C3.2_H3.1_[+1CTT]_A3.1_F3.1_T3.2 (ssRNA) RNA: UUUGAUUAAUAUGAUAUCGUUCUUUCUCUUCUUGUAUAUAUAUUCUUUCUCGAUAUCAUAUUAAUCUUU | 1.32
44 | UCUCUUUGUAUUAUUAUCUCUUCUCUU (ssRNA) [Ie_S1_P5E.1_K5.1_C5.1_H5.1_A5.1_F5.1_[+10TCTCT]_T5.1] | 8.17
45 | UCUCUUUGUAUUAUUCCCUUAUCUCUU (ssRNA) [Ie_S1_P5E.1_K5.1_C5.1_H5.1_A5.1_F5.1_[+9CCCTT]_T5.1] | 17.6
46 | UCUCUUUGUAUUAUUAUUUCUCUU (ssRNA) [Ie_S1_P5E.1_K5.1_C5.1_H5.1_A5.1_F5.1_[+10TT]_T5.1] | 6.42
